The record followed here is the Immune Epitope Database (IEDB).

In test [1] the target is HLA-B*40:01. Kind of test: IEDB peptide-MHC binding, purified MHC/competitive/radioactivity; filed as Kd, often an IC50 or EC50 that approximates it; ≥ and ≤ were set here for values at or beyond the usual limits of such assays.
Test [2] addresses HLA-B*08:01. The description is as above.
The target in test [3] is HLA-B*07:02. The description is as above.
The target in test [4] is HLA-B*53:01. Described as above.
Test [5] has as its target HLA-B*35:01. The description is as above.
For test [6], the target named is HLA-B*54:01. The description is as above.
The target in test [7] is HLA-B*51:01. The description is as above.
For test [8], the target named is HLA-A*26:01. The test is described as above. The note with it: source organism: Dengue virus 1 Brazil/97-11/1997.
For test [9], the target named is HLA-A*68:02. The test is described as above.
Test [10] deals with HLA-A*02:01. The description is as above.
The target in test [11] is HLA-A*02:06. The test is described as above.
Test [12] deals with HLA-B*57:01. Kind of test: IEDB peptide-MHC binding, purified MHC/direct/fluorescence; filed as Kd, often an IC50 or EC50 that approximates it; ≥ and ≤ were set here for values at or beyond the usual limits of such assays.
In test [13] the target is HLA-B*58:01. The test is described as above.
The target in test [14] is HLA-B*51:01. Kind of test: IEDB peptide-MHC binding, purified MHC/competitive/fluorescence; filed as Kd, often an IC50 or EC50 that approximates it; ≥ and ≤ were set here for values at or beyond the usual limits of such assays. The note with it: source organism: Mycobacterium tuberculosis H37Ra.
Test [15] deals with HLA-A*32:01. Briefly: IEDB peptide-MHC binding, purified MHC/competitive/radioactivity; filed as Kd, often an IC50 or EC50 that approximates it; ≥ and ≤ were set here for values at or beyond the usual limits of such assays. The note with it: source organism: Vaccinia virus WR.
Test [16] concerns the target HLA-A*11:01. The description is as above. The note with it: source organism: Mammarenavirus machupoense.
For test [17], the target named is HLA-A*01:01. Described as above. The settings on record: source organism: Dengue virus 3 Martinique/1243/1999.
Test [18] concerns the target HLA-A*02:03. The description is as above.
For test [19], the target named is HLA-B*15:01. The description is as above.
Test [20] concerns the target HLA-A*23:01. The description is as above. The note with it: source organism: Dengue virus 3 Martinique/1243/1999.
Test [21] addresses HLA-A*02:02. The description is as above. The note with it: source organism: Vaccinia virus WR.
The mark [22] stands for this setting: source organism: Dengue virus 1 Brazil/97-11/1997.
[23] abbreviates: source organism: Vaccinia virus WR.
Where [24] appears, read: source organism: SARS coronavirus Tor2.
[25] abbreviates: source organism: Lymphocytic choriomeningitis virus (strain Armstrong).
Setting [26] is: source organism: Dengue virus 4 Philippines/H241/1956.
Where [27] appears, read: source organism: Dengue virus 3 Martinique/1243/1999.
The mark [28] stands for this setting: source organism: Triticum aestivum.
Setting [29] is: source organism: Dengue virus 2 Jamaica/1409/1983.
Setting [30] is: source organism: Mammarenavirus machupoense.
Where [31] appears, read: source organism: Giardia lamblia ATCC 50803.

Broadly, the Kd is a measure of binding affinity in units of concentration.

In the case of AETQHGTVLV, the dissociation constant (Kd) in test [1] (setting [22]) worked out at 98.4 nM.

Consider AGRRSVSGDL, for which, in test [2] (setting [22]), the Kd worked out at 9260 nM.

Consider AKNPNRFVI, for which the Kd in test [3] (source organism: Variola virus) is 11900 nM; in [4] (source organism: Variola virus) it was not below 78100 nM; in test [5] (source organism: Variola virus), not below 77400 nM; in test [6] (source organism: Variola virus) it was not below 78100 nM; in test [7] (source organism: Variola virus), not below 77400 nM.

With ALRFFLQRL, the equilibrium dissociation constant (Kd) in [2] (setting [23]) is 1990 nM.

For the sequence APSASAFFGM, the dissociation constant (Kd) was 122 nM in [3] (setting [24]); 4110 nM in test [4] (setting [24]); 2140 nM in test [5] (setting [24]); not below 42700 nM in test [6] (setting [24]); 1990 nM in test [7] (setting [24]).

Take DPVYISQFSY: the Kd in test [3] (setting [23]) was not below 69600 nM; in test [4] (setting [23]) it was 10500 nM; in test [5] (setting [23]) it was 928 nM; in test [6] (setting [23]), not below 38600 nM; in test [7] (setting [23]), not below 69600 nM.

Take DTAWDFGSI: the equilibrium dissociation constant (Kd) worked out at 562 nM in test [8] and 3.09 nM in test [9] (setting [22]).

Regarding ELESQISEL, the Kd in test [10] (source organism: Homo sapiens) was not below 78100 nM; in test [9] (source organism: Homo sapiens), not below 60000 nM.

Regarding ELVENGKKV, the Kd in test [11] (source organism: Homo sapiens) stood at 9570 nM; in [9] (source organism: Homo sapiens), 6350 nM.

Regarding EPVPLTVKM, the Kd is 15000 nM in [3] (setting [25]); 327 nM in [4] (setting [25]); 63.4 nM in test [5] (setting [25]); not below 69500 nM in [6] (setting [25]); 12700 nM in test [7] (setting [25]).

Take ETQHGTTVV: the Kd in test [9] (setting [26]) amounted to 8.6 nM.

ETWNRQDLLV: the Kd in test [9] (setting [22]) was determined as 17 nM.

In the case of FCSHHFHEL, the Kd in [2] (setting [27]) was 135 nM.

On to FIAFLRFLAI, for which the results for the dissociation constant (Kd) in [4] (setting [22]), in [11] (setting [22]) and in test [9] (setting [22]) were 1320 nM, 14.9 nM and 417 nM, respectively.

With FPDIPVNNNI, the Kd in test [3] (setting [23]) is 821 nM; in test [4] (setting [23]), 1.22 nM; in test [5] (setting [23]) it was 442 nM; in test [6] (setting [23]), 69.3 nM; in test [7] (setting [23]), 66.7 nM.

Consider FPLNSKVKVI, for which the dissociation constant (Kd) in test [3] (setting [24]) was not below 33400 nM; in test [4] (setting [24]) it was 1070 nM; in test [5] (setting [24]), not below 29400 nM; in [6] (setting [24]) it was 927 nM; in test [7] (setting [24]) it was 4710 nM.

For FPNITNLCPF, the Kd came out at 56.6 nM in test [3] (setting [24]); 0.782 nM in [4] (setting [24]); 1.66 nM in [5] (setting [24]); 445 nM in [6] (setting [24]); 6.33 nM in test [7] (setting [24]).

As for FPPTSFGPLV, the Kd is 2080 nM in [3] (setting [24]); 4860 nM in test [4] (setting [24]); not below 24700 nM in test [5] (setting [24]); 1260 nM in [6] (setting [24]); 6260 nM in test [7] (setting [24]).

Consider GAITSAHFM, for which the Kd in [12] (source organism: Mycobacterium tuberculosis str. Haarlem) amounted to 687 nM; in [13] (source organism: Mycobacterium tuberculosis), 905 nM.

For the sequence IINKRKKTSL, in [2] (setting [27]), the Kd was 83.9 nM.

In the case of IPCRDVVL, the Kd in test [3] (setting [28]) was 3680 nM; in [4] (setting [28]), not below 49100 nM; in [5] (setting [28]), 17100 nM; in [6] (setting [28]), not below 87700 nM; in test [7] (setting [28]), 67.7 nM.

Consider KPLLAPHHVV, for which the dissociation constant Kd in test [3] (setting [24]) is 179 nM; in test [4] (setting [24]), not below 69900 nM; in [5] (setting [24]) it was not below 69900 nM; in [6] (setting [24]) it was 7250 nM; in [7] (setting [24]), not below 69600 nM.

KRKLRTLIL: the dissociation constant Kd in test [2] (setting [22]) is 462 nM.

For the sequence LAGPMVAGGL, the equilibrium dissociation constant (Kd) in test [2] (setting [26]) worked out at 7750 nM.

For the sequence LAKRFSKGLL, in test [2] (setting [22]), the Kd came to 2530 nM.

As for LEFEALGFLN, the Kd in test [1] (source organism: Murray valley encephalitis virus (strain MVE-1-51)) amounted to 144 nM.

LEYTIVITPH: the dissociation constant (Kd) in test [1] (setting [29]) came to 2470 nM.

For LLKFRVESC, the dissociation constant (Kd) in test [2] (source organism: Vaccinia virus Copenhagen) was 74.4 nM.

With LLQEENRQKL, the dissociation constant (Kd) in test [9] (source organism: Homo sapiens) was not below 60000 nM.

Take LPQHLTLRAQ: the dissociation constant (Kd) in test [3] (setting [22]) is 265 nM; in [5] (setting [22]) it was 520 nM; in [7] (setting [22]), not below 31700 nM.

Regarding LPTSITVPV, the Kd in [3] (setting [30]) is 67.1 nM; in [4] (setting [30]), 72.5 nM; in test [5] (setting [30]), 3.55 nM; in test [6] (setting [30]), 4.01 nM; in test [7] (setting [30]) it was 1970 nM.

Turning to LPVCQSSSM, the Kd in [3] (setting [27]) worked out at 10.5 nM; in test [4] (setting [27]) it was 1010 nM; in test [5] (setting [27]) it was 12.6 nM; in test [7] (setting [27]) it was 2740 nM.

Sequence LPVPLFPGF showed a dissociation constant Kd in test [14] of 249 nM.

For LPYPQPQLPY, the dissociation constant (Kd) was determined as 4330 nM in test [3] (setting [28]); 4.49 nM in test [4] (setting [28]); 0.487 nM in test [5] (setting [28]); 8530 nM in test [6] (setting [28]); 9.22 nM in test [7] (setting [28]).

For the sequence MAMFYAHAL, the Kd in test [2] (setting [23]) came to 1.15 nM; in [15] it was 12500 nM.

In the case of MECSPRTGL, the equilibrium dissociation constant (Kd) in test [1] (setting [29]) stood at 153 nM.

Regarding MLNNSFYYM, the dissociation constant (Kd) in test [6] (setting [30]) worked out at 7520 nM; in [16], 195 nM.

On to MPVTVASAAQ, for which the dissociation constant (Kd) in test [3] (setting [22]) was 446 nM; in test [5] (setting [22]), 391 nM; in test [7] (setting [22]) it was not below 69600 nM.

For the sequence MTATPPGTA, in [9] (setting [27]), the equilibrium dissociation constant (Kd) was 35.2 nM.

Take MTDDIGMGV: the figures for the Kd in test [11] (setting [29]) and in [9] (setting [29]) were 7.05 nM and 5.13 nM, respectively.

On to MTTEDMLTV, for which the dissociation constant Kd in test [17] worked out at 7380 nM; in [11] (setting [27]) it was 2.85 nM; in [9] (setting [27]) it was 19.1 nM.

MVSAGSGEV: the Kd in [9] (setting [22]) stood at 29.6 nM; in test [18] (setting [22]), 94.6 nM.

Regarding NMDPLNDNI, the equilibrium dissociation constant (Kd) in test [10] (source organism: Homo sapiens) was 1930 nM; in [9] (source organism: Homo sapiens), not below 85700 nM.

Regarding NTTANISLTA, the Kd in test [9] (setting [22]) was 44.6 nM.

As to QETWNRQDLL, the dissociation constant (Kd) in test [1] (setting [22]) turned out to be 9.21 nM.

As for RDALDNLAVL, in [2] (setting [29]), the Kd was found to be 1160 nM.

RKSGKKVIQL: the Kd in test [2] (setting [26]) is 301 nM.

Consider RRKRSVTMLL, for which the dissociation constant Kd in [2] (setting [22]) amounted to 3650 nM.

RSIRKFNTM: the dissociation constant Kd in test [2] (setting [23]) came out at 16.9 nM; in test [19] (setting [23]) it was 4.38 nM.

Regarding RTRPPPCPH, the dissociation constant Kd was 935 nM in [12] (setting [31]) and not below 20000 nM in [13] (setting [31]).

For SAYTALFSGV, the Kd in test [11] (setting [27]) is 1.16 nM; in test [9] (setting [27]), 9.19 nM; in [18] (setting [27]) it was 7.14 nM.

SLNALFVML: the Kd in [2] (setting [23]) is 1260 nM; in test [15], 1230 nM.

Regarding SPYVKFIYF, the equilibrium dissociation constant (Kd) in test [2] (setting [23]) was 1780 nM.

STANVSLAAI: the Kd is not below 47800 nM in [17] and 2.12 nM in test [9] (setting [27]).

As for STMTLLCLI, in test [9] (setting [26]), the dissociation constant (Kd) came out at 3.75 nM.

On to VEAGRTLRVL, for which the dissociation constant (Kd) in test [1] (source organism: Dengue virus 2 Peru/IQT2913/1996) stood at 12.1 nM.

Consider VEETNMITL, for which the Kd in [1] (source organism: Dengue virus 4 Dominica/814669/1981) worked out at 27.1 nM.

As to WLGARYLEF, the Kd in test [2] (setting [27]) worked out at 2.26 nM; in test [20], 82.7 nM; in test [19] (setting [27]), 158 nM.

Turning to YVNAILYQI, the dissociation constant (Kd) was determined as 2050 nM in test [21]; 1430 nM in test [10] (setting [23]); 1980 nM in test [11] (setting [23]); 1860 nM in [9] (setting [23]); 9940 nM in test [18] (setting [23]).
